Results from publication PMC314469, “Protein Interaction Networks by Proteome Peptide Scanning” (PLoS Biology, 2004).

T1: amphyphisin SH3 (AMPH_HUMAN), P49418
T1 chain: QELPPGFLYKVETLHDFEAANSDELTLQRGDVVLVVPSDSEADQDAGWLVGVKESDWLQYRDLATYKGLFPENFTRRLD


Legend:
[1] = target: T1, amphyphisin SH3 (AMPH_HUMAN), P49418; experiment: SPOT array
[2] = target: endophilin SH3 (SH3G2_HUMAN), Q99962; experiment: SPOT array

Binder | normalised SPOT signal, Boehringer light units (BLU); mean over the file's lines of this peptide [1] | normalised SPOT signal, Boehringer light units (BLU); mean over the file's lines of this peptide [2]
KPPKPPKPPRPPKT [Q9Y6N4 506-520] | 3550 | 16900
KLFRPRRPRSSSDA [O94820 221-234] | 46.6 | 316
KPASPKKPPPGERR [Q9UQ36 1183-1197] | 43.2 | 779
KIPKPPKPPKPPRP [Q9Y6N4 503-517] | 1310 | 9990
KRKKFKRPPQRLFD [O00267 328-341] | 57.4 | 22.5
KKYLPKRPAKDDPE [Q15642 51-64] | 11.1 | 195
KLEDPRRPDTSFLW [O75923 2014-2027] | 45.6 | 22.4
KPPALPRPIRNLEV [P47895 16-29] | 118 | 958
KRKKPSRPAKTRKR [Q9UNZ9 85-98] | 109 | 175
ANKILNRPKRYNSG [P00740 37-50] | 476 | 198
KLKSPKRPASPSSP [Q9H8D2 66-79] | 32.4 | 803
KQVSPRRPQATEAV [Q9Y3H2 190-203] | 147 | 125
KISWLSRPRRVSLS [Q13577 12-25] | 1200 | 492
KLGTLRRPEGPAEP [Q14289 12-25] | 24.6 | 10.4
KQASLKRPPTAGAQ [Q9UBC5 553-566] | 5.2 | 55.2
KQYMLRRPALEDYV [Q9NWS7 207-220] | 79.4 | 148
ANLALRRPQGSTSR [P06681 588-601] | 12.6 | 322
KPEGLRRPPSKTSM [Q15047 1069-1082] | 32.3 | 41.2
KPQRPRRPASPIST [P07360 22-35] | 2580 | 9220
KKDSFERPRRVGAK [O95391 130-143] | 2590 | 106
KPRQIKRPLEDAIE [Q9UNI5 8-21] | 57.1 | 30.7
